Test results from PMC5829300.

Target: ^hexYME1^WB (^hexYME1 variant containing an E381Q Walker B mutant) (yeast) (UniProt P32795)
Experiment: cryo-EM structure

^hexYME1^WB (^hexYME1 variant containing an E381Q Walker B mutant) (from UniProt P32795 279-712) (enzyme)
stoichiometry N: 6
